Biological target: surface HSP90 on MDAMB453 breast cancer cells (human, UniProt P07900 2-732)
Experiment: cell-based or functional assay

Row | Binder | inhibition of wound closure, MDAMB453 in vitro wound healing assay, 200 µg/ml, 48 hours
1 | monoclonal antibody (mAb) 4C5 (antibody, V domains shown) VL: ELVMTQSPSSMYASLGERVTITCKASQDINSYLSWFQQKPGKSPKTLIYRANRLVDGVPSRFSGSGSGQDYSLTINSLEYEDMGIYYCLQYDEFPRLTFGAGTRLELKR | 55.3%
2 | recombinant 4C5 (antibody, V domains shown) VL: ELVMTQSPSSMYASLGERVTITCKASQDINSYLSWFQQKPGKSPKTLIYRANRLVDGVPSRFSGSGSGQDYSLTINSLEYEDMGIYYCLQYDEFPRLTFGAGTRLELKR | 46.5%
3 | human-mouse chimeric 4C5 antibody (antibody, V domains shown) VL: ELVMTQSPSSMYASLGERVTITCKASQDINSYLSWFQQKPGKSPKTLIYRANRLVDGVPSRFSGSGSGQDYSLTINSLEYEDMGIYYCLQYDEFPRLTFGAGTRLELKR | 51.2%
